From the nanobody polyreactivity screen of Harvey et al. (2022)

assay: yeast display, Sf9 membrane polyspecificity reagent, FACS + sequencing; frameworks hold sequencing errors
Outline: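 Galactose induction of a Saccharomyces cerevisiae BJ5465 synthetic nanobody display library ran 36–48 hours. The cells were then stained for 1 hour at 4 °C with 10% biotinylated, detergent-solubilized Sf9 membrane reagent, pulled down on streptavidin microbeads and FACS-sorted into low and high (top ~1%) gates on expression and reagent-binding fluorescence. Labels for polyreactivity follow the gate of origin.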

Sequence | polyreactivity (PSR sort gate)
QVQLVESGGGLVQAGGSLRLSCAASGSTFRGYAMGWYRQAPGKERELVAAISWSGGSTYYADSVKGRFTISRDNAKNTVYLQMNSLKPEDTAVYYCNAVLYRFAYNYWGQGTQVTVSS | low polyreactivity
QVQLVESGGGLVQAGGSLRLSCAASGFTVDLYAMGWYRQAPGKERELVAAITSSGGSTYYADSVKGRFTISRDNAKNTVYLQMNSLTPEDTAVYYCAVAYSSHTSYYSWGQGTQVTVSS | low polyreactivity
QVQLVESGGGLVQAVGSLSLSCAASGIIFTWYDMGWYRPAPGKERELVAAISYIGGGSTYYADSVKGRFTISRDNAKNTVYLQMNSLKPEDTAVYYCATDFYYAKYGYWGQGTQVTVSS | low polyreactivity
QVQLVESGGGLVQAGGSHRLSCAASGFTINFYSMGWYRQAPGKERELVAAITASGGGSTYYADSVKGRFTISRDNAKNTVYLQMNSLKPEDTAVYYCNADYTGSFYTYDYWGQGTQVTVSS | low polyreactivity
QVQLVVSGGGLVQAGGSLRLSCAASGIIFSPYALGWYIQAPGKERELVAAISYSGGSTYYADSVKGRFTISRDNAKNTVYLQMNSLKPEDTAVYYCAVVYSYYLAVMGYWDYDYWGQGTQVTVSS | low polyreactivity
QVQLVESGGGLVQAGGSLRLSCAASGFIFLYYAMGWYRQAPGKERELVAAITTRGGRTYYADSVKGRFTISRDNAKNTVYLQMNSLIPEDTAVYYCAADHLYWGLEYESWGQGTQVTVSS | low polyreactivity
QVQLVESGGRLVQAGGSLRLSCAASGRIFGRYAMGWYRQAPGKERELVAAISSSGGSTYYADSVKGRFTISRDNAKNTVYLQMNSLKPEDTAVYYCAAEIIKVAYRVAYYYWGQGTQVTVSS | high polyreactivity
QVQLVESGGGLVQAGGSLRLSCAASGSTFGYYAMGWYRQAPGKERELVAAITDSGGITHYADSVKGRFTISRDNAKNTVYLQMNSLKPEDTAVYYCYARYLGYGWFDYWGQGTQVTVSS | low polyreactivity
QVQLVESGGGLVQAGGSLRLSCAASGFTFTANGMGWYIQAPGKERELLAAINWSGSRTYYADSVKGRFTISRDNAKNTVYLQMNSLKPEDTAVYYCNTATSKSSYRHYDYWGQGTQVTVSS | high polyreactivity
QVQLVESGGGLVQAGGSLRLSCAASGINFAYNAMGWYRQAPGKERELVATITDSGGSTSYADSVKGRFTISRDNAKNTVYLQMNSLKPEDTAVYYCAVLPVYWYWRNYVYLSGYDYWGQGTQVTVSS | low polyreactivity
QVQLLESGGGLDQAGGSLRLSCAAYGRIFGPNAMGWYRQAPGKERELVAAISWSGGTTRYADSVKGRFTISRDNAKNSVYLQMNSQKPEDTAVYYCAASADDRRSGKRYDSWGHGTQVTVSS | high polyreactivity
QVQLVESGGGLVQAGGSLRLSCAASGSTFYRYAMGWYRQAPGKEREFVAAISGSGGSTRYADSVKGRFTISRDNAKNTVYLQMNSLKPEDTAVYYCAARSRDGYITFDYWGQGTQVTVSS | high polyreactivity
QVQLVESGGGLVQAGGSLRFSCAASRRTFANNAMGWYRQAPGKERELVAAISSGGNTYYADSVKGRFTISRDNAKNTVYLQMNSLKPEDTAVYYCAARYWIYRSEYDYWGQGTQVTVSS | high polyreactivity
QVQLVESGGGLVQAGGSLRLSCAASGRIFRSYAMGWYRQAPGKERELVASISWSGVSTSYADSVKGRFTISRDIAKNTVYLQMNSLKPEDTAVYFCAARSWYVGSGPFNYWGQGTQVTVSS | high polyreactivity
QFQLVESGGALVQAGGSLRLSCAASGLIFGRYAMGWYRQAPGNERELVAAISWRGGSTFYADSVKGRFTISRDNAKNTVYLQMNSLKPEDTAVYYCNARYYPARVRTYDHWGQGTQVTVSS | high polyreactivity
QVQLVESGGGLVQARGSLRLSCAASGRIFLINGMGWYRQAPGKERELVAVITQSGGTYYADSVKGRFTISRDNAKNTVYLQMNSLKPEDTAVYYFAASSYGASRGYWGQGTQVTVSS | high polyreactivity
QVQLVESGGGLVQAGGSLRLSCAASGNIFYNVMGWYRQAPGKVRELVAVISSGDSTYYADSVKGRFTISRDNAKNTVYLQMNSLIPEDTAVYYCNAQWITSAYLLYSYDYWWGYDYWGQGTQVTVSS | high polyreactivity
QVQLVESGGGLVQAGGSLRLSCAASGFTVHDYAMGWYRQAPGKERELVAAISFSGGRTYYADSVKGRFSISRDNAKNTVYLQMNSLKPEDTAVYYCNAKGQRIKRWRGYWGQGTQVTVSS | high polyreactivity
QVQLVESGGGLVQAGGSLRLSCAASGRIFGYYAMGWYRQAPGKERELVAAINSGGSTNYADSVKGRFTISRDNAKNTVYLQMNSLKPEDTAVYYCAAGWRYRYFRSRNFYPYYYWGQGTQVTVSS | high polyreactivity
QVQLVESGGGLVQAGAILRLICAASGRIFYRYAMGWYRQAPGKERELVAAISSGGGRTYYADSVKGRFTLSRDNAKNTVYLQMNSLKPEDTAVYYCAASGNSYEQTGGYWGQGTQVTVSS | high polyreactivity
QVQLVESGGGLVQAGGSLRLSCAASGSTFERYVMGWYRQRQGKKWSWLPVLNHNGGSTYYADSVKGRFTISRDNAKNSVYLQMNSRKPEYTAVYYCAKDGLNESQFPGNLRDYWGQGTQVNVSS | low polyreactivity
QVQLVESGGGLVQAGGSLRLSCAASGSTFSFYAMGWYRQAPGKERELVAAISRSGGRTYYADSVKGRFTISRDNAKNTVYLQMNSLKPEDTAVYYCAVEVTHYIHYYYWGQGNQVTVSS | high polyreactivity

Sequence | polyreactivity (PSR sort gate)
QVQHVDSGGGLVQARGTLRLSCSASGRNFGIYTMGWYRQPPVKERELVAAISWRGGSTYYADSVKGRFTISRDNAKNTVYFQLNSLKPEDTAVYYCGKTQPGWRPVRDQIRYGYWGQGTQVTVSA | high polyreactivity
QVQLVESGGGLVQAGGSLRLSCAASGSIFEPNAMGWYRQAPGKERELVAAISWNDGDTYYADSVKGRFTISRDNAKNTVYLQMNCLKPEDTAVYYCAAETGYAFDYWGQGTQVTVSS | low polyreactivity
QVQLVESGGGLVQAGGSLSLSCAASGLTIYLYAKGWYRQPPGNERELVAAISRSGGSTYYADSVKGRFTISRDNAKNTVYLQMNSLKPEDTAVYYCAAVSYYPEIRKYYYWGQGTQVTVSS | high polyreactivity
QVQLVESGGGLVQAGGSLRLSCAASGSIYVNAMGWYRQEPGKERELVAVISKSGGSTYYADSVKGRFTISRDNAKNTVYLQMNSLKPEDTAVYYCATRGVSPSRPGYYWGQGTKVTVSS | high polyreactivity
QVQLVESGGGLVQAGGSLRLSCAASGSIFDVYTMGWSRQAPGKERELVAAISKRSGRTYYADSVKGRFTISRDNAKNTVYLQMNSLKPEDTAVYYCAARGYPTTAVTYDYWGQGTQVTVSS | low polyreactivity
QVQLEESGGGLVQAGGSLRLSCAASGFTLDTYAMGWYRQAPGKERELVAAITSRGGTTYYADSVKGRFTISRDNAKNTVYLQMNSLKPEDTAVYYCNAVTKRWWYRTGYGYWGQGTQVTVSS | high polyreactivity
QVQLVESGGGLVQAGGSLRLSCAASGSIFVLYAMGWYRQAPGKERELVAAISRGVGGTNYADSVKGRFTISRDNAKNTVYLQMNSLKPEDTAVYYCAAQTLRWSHYYYWGQGTQVTVSS | high polyreactivity
QDQLVESRGGLVQAGGSLRLSCAASGFTFGRYAMGWYRQAPGKERELVAVITSSGGRTYYADSVKGRFTISRDNAKNTVYLQMNSLKPEDTAVYYCHKYPLRLYGYDYWGQGTQVTVSS | high polyreactivity
QVRLVESGGGLVQAGGSLRLSCADSGSTLDINAMGWYTQAPGKERELVASISWTGGHTYYADSVKGRFTISRDNAKNTVYLQMNSLKPEDTAVYYCAATHQETVYYFLSIFDDWGQGTQVTLSS | low polyreactivity
QVQLVESGGGLVQAGGSLRLSCAATGRIFSLYAMGWYRQAPGKERELVASITRSGVRTYYADSVKGRFTISRDNAKNTVYLQMNSLKPEDTAVYYCAAPYLYSQGTYYRSSGMDYWGQGTQVTVSS | low polyreactivity
QVQLVESGGGLVQAGGSLRLSCAASGIIFYYNAMGWNRKAPGKERELVAAISQRGSSTYYADSVKGRFTISRDNAQNTVYLQMNSLKPEDTAVYYCAKRFIYGRYNYWGQGTQVTVSS | high polyreactivity
QVQLVESGGGLVQAGGSLRLSCAASGRTFVRYAMGWYRQAPGKERELVARITSRGTSTYYADSVKGRFTISRDNAKNTVYLQMNSLKPEDTAFYYCNKVRTFRDKSRYDYWGQGTQVTVSS | low polyreactivity
QVQLVESGGGLVQAGGSLRLSCAASGSIFSDNAMGWYRQAPGKERELVAAISWIGDSTDYADSVKGRFTISRDNAKNTVYLQMNSLKPEDTAVYYCAGDAKVVSPRYRANDIGMYYWGQGTQVTVSS | low polyreactivity
QVQLLESWGGLVQAGGSLRLSCAASGRTSTRNAMGWYRQAPGNERELVAAISWSGGRTHYADSVKGRFTISRDNAKNTVYLQMNSLKPEDTAVYYCAAAYTGGQKYYSWGQGTEVTVSS | high polyreactivity
QVQLVESGGGLVQAGGSLRLSCAASGTFYTYAMGWYRQAPGKERELVAAINGGGRTYYADSVKGRFTISRDNAKNTVYLQMNSLKPEDTAVYYCAARPRWSPSKYDYWGQGTQVTVSS | high polyreactivity
QVQLVESGGGLVQAGGSLRLSCAASGSIFDPYAMGWSRQAPGKEREFVAAISYSAGSTYYADSVKGRFTISRDNAKNTVYLQMNSLKPEATAVYYCAARYTHTSPSIRSWAYYYWGQGTQVTVSS | high polyreactivity
QVQLVESGVVLDQAGGILRLSCAASGFIFARYDMGWYRQAPGKERELVATISYTGGRTYYADSVKGRFTISRDNAKNTVYLQMNSLKPEDTAVYYCAAVVQSSEPVEYDYWGQGTQVTVSS | high polyreactivity
QVQLVVSGGGLVQAGGSLRLSCAASGRIFWFNAMGWYRQAPGKEREFVATITYRGGSTYYADSVKGRFTISRDNAKNTVYLQMNSLLPEDTAVYYCAASVSYRRYHRFGYWGQGTQVTVSS | high polyreactivity
QVQLVESGGGLVQAGGSLRLSCAASGFTFSRYAMGWYRQAPGTERELVAAITSRGGSTYYADSVKGRFTISRDNAKNTVYLQMNSLKPEDTAVYYCAASGRNRKDGLYEYYYWGQGTQVTVSS | high polyreactivity
QVQLVESGGGLVQAGGSLRLSCAASGLTFSPNAMGWYRQAPGKERELVAAITRSGSTTHYADSVKGRFTISRDNAKNTVYLQMNSLKPEDTAVYYCARRYYGPYDYWGQGTQVTVSS | high polyreactivity
QVQLVESGGGLVQAGGSLRLSCAASGYIFYYYAMGWYRQAPGKERELVAAISSGGSTSYADSVKGRFTISRDNAKNTVYLQMNSLKPEDTAVYYCAAYKPWYVGLYPWYDYWGQGTQVTVSS | low polyreactivity
